In PMC3000947 one finds Km, kcat and kcat/Km data, which are given here for 1 protein.

Substrate in data set [1]: O=C1C(O)=CC(=O)c2c(O)cc(O)cc21
Kind of data set: purified protein. The settings on record: 2 mM GPP, 50 mM Hepes-NaOH pH 7.5, 5 mM MgCl2, 30 °C.

Substrate in data set [2]: Oc1cc(O)c2ccccc2c1
Nature of the data set: purified protein. To be noted: 2 mM GPP, 50 mM Hepes-NaOH pH 7.5, 5 mM MgCl2, 30 °C.

B1: Fur7 (Streptomyces sp. KO-3988) (protein)
chain: MPGTDDVAVDVASVYSAIEKSAGLLDVTAAREVVWPVLTAFEDVLEQAVIAFRVATNARHEGDFDVRFTVPEEVDPYAVALSRSLIAKTDHPVGSLLSDIQQLCSVDTYGVDLGVKSGFKKVWVYFPAGEHETLARLTGLTSMPGSLAGNVDFFTRYGLADKVDVIGIDYRSRTMNVYFAAPSECFERETVLAMHRDIGLPSPSEQMFKFCENSFGLYTTLNWDTMEIERISYGVKTENPMTFFARLGTKVEHFVKNVPYGVDTQKMVYAAVTSSGEEYYKLQSYYRWRSVSRLNAAYIAARDKEST
In general, Km refers to the concentration of substrate that gives half-maximal velocity. As a reminder, the kcat/Km is the turnover number divided by the Michaelis constant. As to B1, in “purified protein [1]”, the Km was 48 ± 2 µM, the kcat is 28 ± 3 × 10^-3 s^-1 and the kcat/Km came out at 580 M⁻¹ s⁻¹. For the same protein, in the data set “purified protein [2]”, the Km is 320 ± 20 µM, the kcat is 0.13 ± 0.05 × 10^-3 s^-1 and the kcat/Km was found to be 0.41 M⁻¹ s⁻¹.
